Where “and” joins values, the source holds several entries; their conditions need not be identical. Equal entries are not always repeated. Blank lines part the entries; values can stand above or below the binder they belong to.
B2: His-ASXL2-AB (261–381aa) (domain or fragment, human, UniProt Q76L83 261-381, looked up)
chain: MKRTKCADIDVETPDSILVNTNLRALINKHTFSVLPGDCQQRLLLLLPEVDRQVGPDGLMKLNGSALNNEFFTSAAQGWKERLSEGEFTPEMQVRIRQEIEKEKKVEPWKEQFFESYYGQS
B3: His-ULD/AB protein complex (pETDuet-1-His-BAP1-ULD+ASXL2-AB) (complex, human)
chain 1: KEVVEATDSREKTGMVRPGEPLSGEKYSPKELLALLKCVEAEIANYEACLKEEVEKRKKFKIDDQRRTHNYDEFICTFISMLAQEGMLANLVEQNISVRRRQGVSIGRLHKQRKPDRRKRSRPYKAKRQ
chain 2: MKRTKCADIDVETPDSILVNTNLRALINKHTFSVLPGDCQQRLLLLLPEVDRQVGPDGLMKLNGSALNNEFFTSAAQGWKERLSEGEFTPEMQVRIRQEIEKEKKVEPWKEQFFESYYGQS
B4: His-BAP1-ULD (601–729aa) (domain or fragment, human, UniProt Q92560 601-729, looked up)
chain: KEVVEATDSREKTGMVRPGEPLSGEKYSPKELLALLKCVEAEIANYEACLKEEVEKRKKFKIDDQRRTHNYDEFICTFISMLAQEGMLANLVEQNISVRRRQGVSIGRLHKQRKPDRRKRSRPYKAKRQ

Tests used:
[1] = biological target: B3; assay: SPR
His-BAP1-ULD (601–729aa) = biological target: B4; assay: ITC
GST-BAP1-ULD = biological target: T1, GST-BAP1-ULD (human, UniProt Q92560 601-729); assay: SPR
T1 sequence (looked up): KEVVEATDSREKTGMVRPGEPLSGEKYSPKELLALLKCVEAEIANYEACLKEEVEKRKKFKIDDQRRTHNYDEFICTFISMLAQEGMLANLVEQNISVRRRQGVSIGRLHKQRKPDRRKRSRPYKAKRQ

[2] = biological target: T2, Full-length His-BAP1 (Bv-His-BAP1-FL-WT) (human, UniProt Q92560 1-729); assay: SPR
T2 sequence (looked up): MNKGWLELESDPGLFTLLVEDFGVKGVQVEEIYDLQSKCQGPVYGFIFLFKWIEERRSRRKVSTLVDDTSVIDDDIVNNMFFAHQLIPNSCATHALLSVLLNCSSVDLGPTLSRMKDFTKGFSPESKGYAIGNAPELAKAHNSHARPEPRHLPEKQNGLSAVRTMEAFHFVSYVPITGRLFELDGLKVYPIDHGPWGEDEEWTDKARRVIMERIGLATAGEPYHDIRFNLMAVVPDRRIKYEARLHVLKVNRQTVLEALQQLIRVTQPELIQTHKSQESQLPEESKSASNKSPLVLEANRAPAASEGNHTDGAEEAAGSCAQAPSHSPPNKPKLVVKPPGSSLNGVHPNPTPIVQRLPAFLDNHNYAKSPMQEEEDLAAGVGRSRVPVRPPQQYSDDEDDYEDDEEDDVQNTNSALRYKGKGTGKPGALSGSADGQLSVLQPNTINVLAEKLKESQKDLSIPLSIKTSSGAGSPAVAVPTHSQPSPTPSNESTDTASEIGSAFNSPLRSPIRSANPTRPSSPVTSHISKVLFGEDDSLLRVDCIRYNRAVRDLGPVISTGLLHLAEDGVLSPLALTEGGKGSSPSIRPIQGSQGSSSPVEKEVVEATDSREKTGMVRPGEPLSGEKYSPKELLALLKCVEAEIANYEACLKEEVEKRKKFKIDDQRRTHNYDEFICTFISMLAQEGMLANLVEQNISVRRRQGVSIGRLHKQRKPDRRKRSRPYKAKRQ

His-ASXL2-AB (261–381aa) = biological target: B2; assay: ITC

koff [1]: 0.044 s⁻¹
B1: GST-BAP1-UCH-WT (1–250 aa) (domain or fragment, human, UniProt Q92560 1-250, looked up)
chain: MNKGWLELESDPGLFTLLVEDFGVKGVQVEEIYDLQSKCQGPVYGFIFLFKWIEERRSRRKVSTLVDDTSVIDDDIVNNMFFAHQLIPNSCATHALLSVLLNCSSVDLGPTLSRMKDFTKGFSPESKGYAIGNAPELAKAHNSHARPEPRHLPEKQNGLSAVRTMEAFHFVSYVPITGRLFELDGLKVYPIDHGPWGEDEEWTDKARRVIMERIGLATAGEPYHDIRFNLMAVVPDRRIKYEARLHVLKV

Binder: B2
Kd (His-BAP1-ULD (601–729aa)): ~4260 nM
Kd (GST-BAP1-ULD): 134 nM and 67 nM

Binder: B3
Kd [2]: 850 nM and 1910 nM
koff [2]: 0.033 s⁻¹

Binder: B4
dH (His-ASXL2-AB (261–381aa)): -9.87 kcal/mol
